Assay results reported in US20190091332A1 (published 2019).

Assays:
human LAG3-huFc [1] = target: T1, human LAG3-huFc (human, UniProt P18627 23-450, limits assumed); assay: flow cytometry competition: antibody pre-incubated with human LAG3-huFc, its binding to Daudi cells (MHC class II) read
T1 construct: also called human LAG3-Fc; huLAG3-huFc; not shown: human Fc (huFc)
T1 sequence: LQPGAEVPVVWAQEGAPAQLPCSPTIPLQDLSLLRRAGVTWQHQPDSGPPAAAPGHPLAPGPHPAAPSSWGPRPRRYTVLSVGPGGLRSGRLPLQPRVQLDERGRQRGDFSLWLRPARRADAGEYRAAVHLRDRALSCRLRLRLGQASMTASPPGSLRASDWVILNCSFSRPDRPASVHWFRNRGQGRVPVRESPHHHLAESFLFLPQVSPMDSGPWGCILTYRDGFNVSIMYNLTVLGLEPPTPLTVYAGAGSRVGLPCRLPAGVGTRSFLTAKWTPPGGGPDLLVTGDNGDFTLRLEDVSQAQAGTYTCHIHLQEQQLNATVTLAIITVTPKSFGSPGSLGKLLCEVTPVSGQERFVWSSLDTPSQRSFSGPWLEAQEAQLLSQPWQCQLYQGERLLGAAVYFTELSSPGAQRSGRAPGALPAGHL
Protocol: (§1) Mouse anti-human LAG3 clones were tested for their ability to block hLAG3 interaction with human MHC Class II. Daudi cells (ATCC #CCL-213) were used as a cell line positive for human MHC class II expression. Daudi cells were blocked with 10 ug/ml of goat IgG in HBSS and 2% BCS on ice for 30 minutes and 0.5×10⁶ cells/sample were aliquoted into a 96-well V-bottom plate and blocking buffer removed. […] Cells were pelleted by centrifugation at 1200 rpm and washed twice with HBSS/2% BCS. […] Cells were washed twice as described above, resuspended in HBSS/2% BCS and read on the FACSCalibur.

human LAG3-huFc [2] = target: T1, human LAG3-huFc; assay: as above; remark: listed apart in the source
Protocol: as §1

human LAG3-huFc [3] = target: T1, human LAG3-huFc; assay: flow cytometry competition: antibody pre-incubated with biotinylated human LAG3-huFc, its binding to Daudi cells (MHC class II) read with streptavidin-PE
Protocol: as §1, with “anti-human LAG3 and humanized anti-LAG3 clones were” for “anti-human LAG3 clones were”

Row | Binder | IC50 (human LAG3-huFc [1]) [nM] | IC50 (human LAG3-huFc [2]) [nM] | IC50 (human LAG3-huFc [3]) [nM]
1 | LB148.19E8.G1.1A1 (antibody, V domains shown, also called Lag3 clone 19E8) VH: QIRLQQSGPELVKPGASVKISCKASGSSFTDYYINWVKQKPGQGLEWIGWIYPGSGNSIYNENFKAKATLTVDTSSSTAYMHLSSLTSEDTAVYFCAREADYDDALDYWGQGTSVTVSS VL: HILLTQSPAILSVSPGERVSFSCRASQSIGTSIHWYQQRTNGSPRLLIKYASESISGIPSRFSGSGSGTDFTLSINSVESEDIADYYCQQSNSWPTYTFGGGTKLEIK | 2.8 | 2.8 | –
2 | LB148.11C9.1C1 (antibody, V domains shown, also called Lag3 clone 11C9; mouse x [LAG3_H] mAb (LB148.11C9.1C1) IgG1/kappa (HY)) VH: QVQLQQPGAELVMPGASAKMSCKASGYTLTDYWMHWVKQRPGQGLEWIGAIDISDSYSSYNQKFKGKATLTVDESSSTAYMQLTSLTSEDSAVYYCARSPFYNSRGGNYFDYWGQGTTLTVSS VL: DIQMTQTTSSLSASLGDRVTISCRASQDISNYLNWYQQKPDGTVKLLIYYTSRLHSGVPSRFSGSGSGTDYSLTISNLEQEDIATYFCQQGDTLPPWTFGGGTKLEIK | 2 | 2 | –
3 | LB145.22D2.E1.1D1 (antibody, V domains shown, also called mouse anti-human LAG3 clone 22D2; Lag3 clone 22D2) VH: EVLLLQSGPELVKPGTSVKIPCKASGYTFTDYNVDWVKQRHGKGLEWIGDINPNNGGTIYSQKFKGKATLTVDKSSSTAFMELRSLTSEDTAVYFCARNYRWFGAMDHWGQGTSVTVSS VL: DIVLTQSPASLAVSPGQRATISCKASQSLDYEGDSDMNWYQQKPGQPPRLLISGASNLESGIPARFSGSGSGTDFTVNIHPVEEEDAATYYCQQSTEDPRTFGGGTKLEIK | 2.1 | 2.1 | –
4 | 22D2 Chimera ([LAG3_H] mAb (LB145.22D2.E1.D1 (VH0/VL0) Geneart) IgG4 S228P/kappa (PX)) (antibody, V domains shown, Chimeric antibody: 22D2 VH0/VL0 variable domains on human IgG4 S228P/kappa; also called Chimeric 22D2; Anti-hLAG3 clone 22D2 (chimeric antibody)) VH: EVLLLQSGPELVKPGTSVKIPCKASGYTFTDYNVDWVKQRHGKGLEWIGDINPNNGGTIYSQKFKGKATLTVDKSSSTAFMELRSLTSEDTAVYFCARNYRWFGAMDHWGQGTSVTVSS VL: DIVLTQSPASLAVSPGQRATISCKASQSLDYEGDSDMNWYQQKPGQPPRLLISGASNLESGIPARFSGSGSGTDFTVNIHPVEEEDAATYYCQQSTEDPRTFGGGTKLEIK | – | – | 2.5
5 | Hu22D2 VH6/VL3 (Ab 5) (antibody, human IgG4 S228P, kappa, V domains shown, Humanized 22D2, IgG4 S228P/kappa; also called 45AGX light chain / 57AHH heavy chain IgG4 S228P) VH: QMQLVQSGPEVKKPGTSVKVSCKASGYTFTDYNVDWVRQARGQRLEWIGDINPNNGGTIYAQKFQERVTITVDKSTSTAYMELSSLRSEDTAVYYCARNYRWFGAMDHWGQGTTVTVSS VL: DIVMTQTPLSLSVTPGQPASISCKASQSLDYEGDSDMNWYLQKPGQPPQLLIYGASNLESGVPDRFSGSGSGTDFTLKISRVEAEDVGVYYCQQSTEDPRTFGGGTKVEIKR | – | – | 2.6
6 | Hu22D2 VH6/VL3 N55Q (Ab 8) (antibody, human IgG4 S228P, kappa, V domains shown, Humanized 22D2, IgG4 S228P/kappa; also called 45AGX light chain / 80AHG heavy chain IgG4 S228P) VH: QMQLVQSGPEVKKPGTSVKVSCKASGYTFTDYNVDWVRQARGQRLEWIGDINPNQGGTIYAQKFQERVTITVDKSTSTAYMELSSLRSEDTAVYYCARNYRWFGAMDHWGQGTTVTVSS VL: DIVMTQTPLSLSVTPGQPASISCKASQSLDYEGDSDMNWYLQKPGQPPQLLIYGASNLESGVPDRFSGSGSGTDFTLKISRVEAEDVGVYYCQQSTEDPRTFGGGTKVEIKR | – | – | 2.5
7 | Hu22D2 VH6/VL3 N55S (Ab 7) (antibody, human IgG4 S228P, kappa, V domains shown, Humanized 22D2, IgG4 S228P/kappa; also called 45AGX light chain / 21AHG heavy chain IgG4 S228P) VH: QMQLVQSGPEVKKPGTSVKVSCKASGYTFTDYNVDWVRQARGQRLEWIGDINPNSGGTIYAQKFQERVTITVDKSTSTAYMELSSLRSEDTAVYYCARNYRWFGAMDHWGQGTTVTVSS VL: DIVMTQTPLSLSVTPGQPASISCKASQSLDYEGDSDMNWYLQKPGQPPQLLIYGASNLESGVPDRFSGSGSGTDFTLKISRVEAEDVGVYYCQQSTEDPRTFGGGTKVEIKR | – | – | 2.1
8 | Hu22D2 VH6/VL3 N55D (Ab 6) (antibody, human IgG4 S228P, kappa, V domains shown, Humanized 22D2, IgG4 S228P/kappa; also called Hu2D2; 45AGX light chain / 73AHD heavy chain IgG4 S228P) VH: QMQLVQSGPEVKKPGTSVKVSCKASGYTFTDYNVDWVRQARGQRLEWIGDINPNDGGTIYAQKFQERVTITVDKSTSTAYMELSSLRSEDTAVYYCARNYRWFGAMDHWGQGTTVTVSS VL: DIVMTQTPLSLSVTPGQPASISCKASQSLDYEGDSDMNWYLQKPGQPPQLLIYGASNLESGVPDRFSGSGSGTDFTLKISRVEAEDVGVYYCQQSTEDPRTFGGGTKVEIKR | – | – | 2.4
9 | LB148.4A10.1H1 (antibody, V domains shown, also called Lag3 clone 4A10; mouse x [LAG3_H] mAb (LB148.4A10.1H1) IgG2a/kappa (HY)) VH: EVQLLQSGAELVRSGASVKLSCTASGFNIEDYYMHWMKQRPEQGLEWIGWIDPVNGDTEYAPKFQGKATMTADTSSNTAYLHLNSLTSEDTAVYYCNFYDGYLFAFWGQGTLVTVSA VL: DIVLTQAAPSVPVTPGESVSISCRSSKSLLHSDGNTYLYWLLQRPGQSPQLLIYRMSNLASGVPDRFSGSGSGTVFTLRISRLEAEDVGIYYCMQHLEYPFTFGGGTKLEIK | 1.9 | 1.9 | –
